Laboratory results reported in patent US20100227824A1 (SYMTHERA CANADA, published 2010).

T1: BCA-1 (CXCL13) (UniProt O43927 23-109)
T1 construct: Bought chemokine
T1 sequence (looked up): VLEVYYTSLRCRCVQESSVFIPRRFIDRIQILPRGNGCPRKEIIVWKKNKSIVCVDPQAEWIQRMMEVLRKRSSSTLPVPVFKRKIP

T2: MCP-2 (CCL8) (UniProt P80075 24-99)
T2 construct: Bought chemokine
T2 sequence (looked up): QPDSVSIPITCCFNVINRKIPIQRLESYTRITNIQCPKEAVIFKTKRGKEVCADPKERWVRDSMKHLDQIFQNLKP

T3: Eotaxin 2 (CCL24) (UniProt O00175 27-104, limits assumed)
T3 construct: Bought chemokine
T3 sequence (looked up): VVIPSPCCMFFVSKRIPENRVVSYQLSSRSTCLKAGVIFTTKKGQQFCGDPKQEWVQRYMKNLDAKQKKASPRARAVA

T4: Lymphotactin (XCL-1) (UniProt P47992 23-114, limits assumed)
T4 construct: Bought chemokine
T4 sequence (looked up): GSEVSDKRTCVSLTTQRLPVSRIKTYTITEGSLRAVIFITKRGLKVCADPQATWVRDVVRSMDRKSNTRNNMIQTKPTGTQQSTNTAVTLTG

T5: GRO-β (CXCL2) (UniProt P19875 35-107)
T5 construct: Bought chemokine
T5 sequence (looked up): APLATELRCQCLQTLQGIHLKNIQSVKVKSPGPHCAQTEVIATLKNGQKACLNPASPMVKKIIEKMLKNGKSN

T6: RANTES (CCL5) (UniProt P13501 24-91)
T6 construct: Bought chemokine
T6 sequence (looked up): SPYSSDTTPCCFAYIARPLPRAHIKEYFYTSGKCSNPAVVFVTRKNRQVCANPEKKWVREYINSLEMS

T7: I-TAC (CXCL11) (UniProt O14625 22-94)
T7 construct: Bought chemokine; also called I-TACK
T7 sequence (looked up): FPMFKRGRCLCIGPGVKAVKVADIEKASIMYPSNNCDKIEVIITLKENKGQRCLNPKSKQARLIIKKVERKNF

T8: TECK (CCL25) (UniProt O15444 24-150)
T8 construct: Bought chemokine
T8 sequence (looked up): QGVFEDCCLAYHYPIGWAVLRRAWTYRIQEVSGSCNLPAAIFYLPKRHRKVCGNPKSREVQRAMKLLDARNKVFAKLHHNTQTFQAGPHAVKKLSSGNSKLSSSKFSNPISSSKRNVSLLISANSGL

T9: Eotaxin 3 (CCL26) (UniProt Q9Y258 24-94)
T9 construct: Bought chemokine
T9 sequence (looked up): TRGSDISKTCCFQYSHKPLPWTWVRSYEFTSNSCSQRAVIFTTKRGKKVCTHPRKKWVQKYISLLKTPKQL

T10: Exodus-2 (CCL21) (UniProt O00585 24-134)
T10 construct: Bought chemokine
T10 sequence (looked up): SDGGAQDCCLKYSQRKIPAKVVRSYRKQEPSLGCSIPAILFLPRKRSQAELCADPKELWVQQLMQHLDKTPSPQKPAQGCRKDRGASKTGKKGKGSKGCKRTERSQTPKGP

T11: IP-10 (CXCL10) (UniProt P02778 22-98)
T11 construct: Bought chemokine
T11 sequence (looked up): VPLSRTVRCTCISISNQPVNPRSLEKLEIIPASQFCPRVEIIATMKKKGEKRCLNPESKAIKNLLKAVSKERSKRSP

T12: Mig (CXCL9) (UniProt Q07325 23-125)
T12 construct: Bought chemokine
T12 sequence (looked up): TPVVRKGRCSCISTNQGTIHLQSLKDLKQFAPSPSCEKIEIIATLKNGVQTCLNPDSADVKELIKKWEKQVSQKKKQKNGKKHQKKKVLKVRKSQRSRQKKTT

T13: I-309 (CCL1) (UniProt P22362 23-96, limits assumed)
T13 construct: Bought chemokine
T13 sequence (looked up): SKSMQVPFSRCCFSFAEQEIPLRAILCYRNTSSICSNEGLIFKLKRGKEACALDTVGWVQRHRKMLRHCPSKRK

B1: Phage-Presented Peptide 8.1 (Ph-p8.1) (peptide)
peptide: GNAMCK
B2: Phage-Presented Peptide 8.7 (Ph-p8.7) (peptide)
peptide: WVFGNAACK
B3: Phage-Presented Peptide 18 (Ph-p18) (peptide)
peptide: DRYLNIVHAT
B4: Phage-Presented Peptide 8.4 (Ph-p8.4) (peptide)
peptide: WVFG
B5: Phage-Presented Peptide 20 (Ph-p20) (peptide)
peptide: TKCQKE

These binders were tested against T1, BCA-1 (CXCL13) (assay: micro-array, phage-presented peptide on printed CK).
Protocol: (§1) (1) Printing: Chemokine (CK) solution (in water) was serially diluted with Print Reagent (GenTel BioSurfaces USA) to final concentrations of 50 μg and 25 μg/ml. BSA/BSA-Biotin control solutions (in water) were diluted with Print Reagent to 100 μg/ml. Amplified stock of M13 phage control (M13KEgIII Cloning Vector, New England Biolabs, Cat.No.E8101S) was stored in Tris Buffered Saline (TBS; pH7.5, 4° C.) and diluted with Print Reagent to the working titre (10^8 pfu/μl). An automated spotting robot (16 pin print tool, 0.4mm head; BioRobotics, UK) was used to print the CK/BSA control/M13 control, 5 repeats per sample (CK 25 μg/ml and 50 μg/ml; BSA 100 μg/ml; M13 20 μl), on PATH Protein Microarray Slides (GenTel, Prod.No.2-1005/-1025) at […], and 50-70% relative humidity. Printed micro-array slides were stored at Room Temperature (RT) or 4° C. for at least 24 h before use.
(§2) (2) Blocking: Block Buffer (500 μl/partition; PATHblock, GenTel, Prod.No.2-1014) was applied to the slide for 1 hour at room temp (RT). After removal of Block Buffer, the slide was air dried for 25 minutes;
(§3) (11) Analysis: Quantitative analysis of micro-array was performed by the SpotReader program of Niles Scientific (USA) and presented as Relative Fluorescence (RF) as a function of CK concentration. Micro-array readout (Cy3 fluorescence) was quantified to determine the relative binding affinities of a CBP for the CKs and by inference, the specificity of the CBP for binding to a CK.

Binder | Relative Fluorescence Units (RFU) | binding result
B1 | > 15000 RFU | 
B2 |  | binds
B3 |  | binds
B4 |  | binds
B5 |  | binds

Each binder was assayed against T2, MCP-2 (CCL8) (assay: micro-array, phage-presented peptide on printed CK).
Protocol: as §1, §2, §3

Binder | Relative Fluorescence Units (RFU) | binding result
B2 | > 15000 RFU | 
B3 |  | binds
B4 | > 15000 RFU | 
B5 | > 15000 RFU | 

Each binder was assayed against T3, Eotaxin 2 (CCL24) (assay: micro-array, phage-presented peptide on printed CK).
Protocol: as §1, §2, §3

Binder | binding result
B3 | binds

These binders were tested against T4, Lymphotactin (XCL-1) (assay: micro-array, phage-presented peptide on printed CK).
Protocol: as §1, §2, §3

Binder | Relative Fluorescence Units (RFU) | binding result
B1 | > 15000 RFU | 
B2 |  | binds
B3 |  | binds
B4 |  | binds
B5 |  | binds

Each binder was assayed against T5, GRO-β (CXCL2) (assay: micro-array, phage-presented peptide on printed CK).
Protocol: as §1, §2, §3

Binder | binding result
B3 | binds
B5 | binds

Each binder was assayed against T14, MCP-4 (CCL13) (UniProt Q99616 24-98) (assay: micro-array, phage-presented peptide on printed CK).
T14 construct: Bought chemokine
T14 sequence (Q99616 24-98 limits assumed): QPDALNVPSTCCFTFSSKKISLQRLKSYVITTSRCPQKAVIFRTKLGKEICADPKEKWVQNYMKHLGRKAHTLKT
Protocol: as §1, §2, §3

Binder | Relative Fluorescence Units (RFU) | binding result
B2 | > 15000 RFU | 
B3 |  | binds
B4 | > 15000 RFU | 
B5 | > 15000 RFU | 

Each binder was assayed against T6, RANTES (CCL5) (assay: micro-array, phage-presented peptide on printed CK).
Protocol: as §1, §2, §3

Binder | binding result
B3 | binds
B5 | binds

These binders were tested against T15, Eotaxin (CCL11) (UniProt P51671 24-97) (assay: micro-array, phage-presented peptide on printed CK).
T15 construct: Bought chemokine
T15 sequence (P51671 24-97 limits assumed): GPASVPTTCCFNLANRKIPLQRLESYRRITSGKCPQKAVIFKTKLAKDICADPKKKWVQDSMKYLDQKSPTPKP
Protocol: as §1, §2, §3

Binder | binding result
B2 | binds
B3 | binds
B4 | binds
B5 | binds

Each binder was assayed against T7, I-TAC (CXCL11) (assay: micro-array, phage-presented peptide on printed CK).
Protocol: as §1, §2, §3

Binder | binding result | Relative Fluorescence Units (RFU)
B2 | binds | 
B3 |  | > 9000 RFU
B4 | binds | 

These binders were tested against T8, TECK (CCL25) (assay: micro-array, phage-presented peptide on printed CK).
Protocol: as §1, §2, §3

Binder | Relative Fluorescence Units (RFU) | binding result
B1 | > 15000 RFU | 
B2 |  | binds
B3 |  | binds
B4 |  | binds
B5 |  | binds

The binders below were run against T9, Eotaxin 3 (CCL26) (assay: micro-array, phage-presented peptide on printed CK).
Protocol: as §1, §2, §3

Binder | Relative Fluorescence Units (RFU) | binding result
B1 | > 15000 RFU | 
B2 |  | binds
B3 |  | binds
B4 |  | binds
B5 |  | binds

Each binder was assayed against T10, Exodus-2 (CCL21) (assay: micro-array, phage-presented peptide on printed CK).
Protocol: as §1, §2, §3

Binder | binding result
B5 | binds

Each binder was assayed against T11, IP-10 (CXCL10) (assay: micro-array, phage-presented peptide on printed CK).
Protocol: as §1, §2, §3

Binder | binding result
B2 | binds
B4 | binds
B5 | binds

These binders were tested against T16, SDF-1β (CXCL12) (UniProt P48061 22-93) (assay: micro-array, phage-presented peptide on printed CK).
T16 construct: Beta isoform of CXCL12; also called SDFβ
T16 sequence (P48061 22-93 limits assumed): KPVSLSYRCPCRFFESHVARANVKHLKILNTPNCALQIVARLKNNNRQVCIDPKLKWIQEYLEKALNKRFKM
Protocol: as §1, §2, §3

Binder | binding result
B2 | binds

What follows are binders tested against T12, Mig (CXCL9) (assay: micro-array, phage-presented peptide on printed CK).
Protocol: as §1, §2, §3

Binder | binding result | Relative Fluorescence Units (RFU)
B2 | binds | 
B3 |  | > 9000 RFU
B4 | binds | 
B5 | binds | 

The binders below were run against T13, I-309 (CCL1) (assay: micro-array, phage-presented peptide on printed CK).
Protocol: as §1, §2, §3

Binder | binding result
B2 | binds
B4 | binds

What follows are binders tested against T17, MCP-1 (CCL2) (UniProt P13500 24-99) (assay: micro-array, phage-presented peptide on printed CK).
T17 construct: Bought chemokine
T17 sequence (P13500 24-99 limits assumed): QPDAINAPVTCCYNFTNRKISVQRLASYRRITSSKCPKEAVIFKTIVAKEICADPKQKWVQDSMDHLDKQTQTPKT
Protocol: as §1, §2, §3

Binder | binding result | Relative Fluorescence Units (RFU)
B3 | binds | 
B5 |  | > 15000 RFU
